According to US8715948:
“Also recorded” adds a separate entry of the source.

Key:
[1] = target: human insoluble aortic elastin (UniProt P15502)
[2] = target: human insoluble skin elastin (UniProt P15502)
fibrillin-1 = fibrillin-1 (UniProt P35555)
fibronectin = fibronectin (UniProt P02751)

Chain of fibrillin-1 (P35555 whole entry, looked up): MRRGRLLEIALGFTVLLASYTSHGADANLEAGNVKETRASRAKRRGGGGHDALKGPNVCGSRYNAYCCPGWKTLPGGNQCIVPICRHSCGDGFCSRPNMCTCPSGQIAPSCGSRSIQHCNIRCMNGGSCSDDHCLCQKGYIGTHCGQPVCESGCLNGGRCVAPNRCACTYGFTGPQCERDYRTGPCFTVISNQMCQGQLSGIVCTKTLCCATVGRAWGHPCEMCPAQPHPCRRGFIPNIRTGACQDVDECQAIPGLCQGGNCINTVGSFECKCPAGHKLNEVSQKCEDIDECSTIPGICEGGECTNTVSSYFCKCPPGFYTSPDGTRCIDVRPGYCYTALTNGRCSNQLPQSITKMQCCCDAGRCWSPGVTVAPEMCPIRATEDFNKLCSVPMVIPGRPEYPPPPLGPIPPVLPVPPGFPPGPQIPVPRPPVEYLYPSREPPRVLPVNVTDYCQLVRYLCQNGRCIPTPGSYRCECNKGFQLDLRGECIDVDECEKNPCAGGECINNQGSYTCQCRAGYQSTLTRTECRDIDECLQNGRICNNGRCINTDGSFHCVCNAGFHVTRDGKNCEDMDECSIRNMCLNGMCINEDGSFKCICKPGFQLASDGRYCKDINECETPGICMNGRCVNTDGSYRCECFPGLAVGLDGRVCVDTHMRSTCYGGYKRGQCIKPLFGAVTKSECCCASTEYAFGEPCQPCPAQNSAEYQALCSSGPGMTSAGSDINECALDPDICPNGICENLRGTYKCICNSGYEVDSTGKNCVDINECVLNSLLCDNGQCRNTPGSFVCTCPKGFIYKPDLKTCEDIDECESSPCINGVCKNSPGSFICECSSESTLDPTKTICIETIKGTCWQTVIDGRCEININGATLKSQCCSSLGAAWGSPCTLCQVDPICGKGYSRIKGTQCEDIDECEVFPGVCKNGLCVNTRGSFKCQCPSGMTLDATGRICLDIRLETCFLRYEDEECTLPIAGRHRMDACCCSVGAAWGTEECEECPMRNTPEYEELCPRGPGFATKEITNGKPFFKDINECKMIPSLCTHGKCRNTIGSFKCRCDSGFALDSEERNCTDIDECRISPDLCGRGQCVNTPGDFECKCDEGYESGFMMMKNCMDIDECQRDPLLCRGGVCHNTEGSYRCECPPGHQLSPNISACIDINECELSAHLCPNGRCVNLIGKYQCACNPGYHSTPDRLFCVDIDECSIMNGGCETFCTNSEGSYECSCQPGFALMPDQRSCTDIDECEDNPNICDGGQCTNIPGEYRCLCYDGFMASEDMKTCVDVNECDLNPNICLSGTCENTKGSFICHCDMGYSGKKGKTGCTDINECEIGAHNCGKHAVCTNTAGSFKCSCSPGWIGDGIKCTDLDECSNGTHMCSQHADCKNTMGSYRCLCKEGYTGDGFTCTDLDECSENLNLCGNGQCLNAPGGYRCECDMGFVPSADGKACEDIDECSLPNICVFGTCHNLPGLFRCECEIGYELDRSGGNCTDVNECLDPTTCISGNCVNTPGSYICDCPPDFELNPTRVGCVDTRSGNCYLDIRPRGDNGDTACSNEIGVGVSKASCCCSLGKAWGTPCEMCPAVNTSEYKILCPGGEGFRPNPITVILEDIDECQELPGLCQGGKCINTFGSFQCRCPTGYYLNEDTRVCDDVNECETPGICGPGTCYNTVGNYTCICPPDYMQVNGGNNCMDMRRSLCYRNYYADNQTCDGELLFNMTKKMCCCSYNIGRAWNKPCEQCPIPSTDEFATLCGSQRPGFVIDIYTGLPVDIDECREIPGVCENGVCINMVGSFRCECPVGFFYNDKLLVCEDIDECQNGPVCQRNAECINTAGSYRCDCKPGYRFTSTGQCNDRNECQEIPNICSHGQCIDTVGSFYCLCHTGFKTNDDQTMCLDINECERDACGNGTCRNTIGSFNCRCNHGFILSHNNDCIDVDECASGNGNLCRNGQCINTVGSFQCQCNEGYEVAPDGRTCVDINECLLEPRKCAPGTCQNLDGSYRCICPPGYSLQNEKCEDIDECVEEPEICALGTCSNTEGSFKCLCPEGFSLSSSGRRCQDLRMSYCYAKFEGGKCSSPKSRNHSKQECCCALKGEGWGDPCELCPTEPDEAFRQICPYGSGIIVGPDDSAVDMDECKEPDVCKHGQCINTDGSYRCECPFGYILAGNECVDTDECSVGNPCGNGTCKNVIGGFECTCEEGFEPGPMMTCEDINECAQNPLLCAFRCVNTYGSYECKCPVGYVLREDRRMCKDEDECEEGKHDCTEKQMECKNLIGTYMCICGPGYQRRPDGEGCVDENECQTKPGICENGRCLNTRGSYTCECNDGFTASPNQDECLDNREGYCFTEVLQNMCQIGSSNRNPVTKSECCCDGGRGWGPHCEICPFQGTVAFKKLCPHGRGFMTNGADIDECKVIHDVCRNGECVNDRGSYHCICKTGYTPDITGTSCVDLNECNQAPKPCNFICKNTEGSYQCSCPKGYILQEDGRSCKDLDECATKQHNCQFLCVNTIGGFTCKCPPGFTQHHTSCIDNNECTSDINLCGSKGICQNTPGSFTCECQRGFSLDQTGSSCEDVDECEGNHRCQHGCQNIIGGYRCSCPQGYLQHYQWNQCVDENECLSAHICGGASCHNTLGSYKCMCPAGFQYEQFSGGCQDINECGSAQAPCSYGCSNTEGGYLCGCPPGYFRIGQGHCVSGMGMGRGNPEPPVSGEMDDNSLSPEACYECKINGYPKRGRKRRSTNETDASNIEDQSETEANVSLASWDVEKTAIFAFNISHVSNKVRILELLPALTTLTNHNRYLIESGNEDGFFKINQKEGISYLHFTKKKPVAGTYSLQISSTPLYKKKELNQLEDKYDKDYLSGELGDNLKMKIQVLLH
Chain of human insoluble aortic elastin (P15502 27-786): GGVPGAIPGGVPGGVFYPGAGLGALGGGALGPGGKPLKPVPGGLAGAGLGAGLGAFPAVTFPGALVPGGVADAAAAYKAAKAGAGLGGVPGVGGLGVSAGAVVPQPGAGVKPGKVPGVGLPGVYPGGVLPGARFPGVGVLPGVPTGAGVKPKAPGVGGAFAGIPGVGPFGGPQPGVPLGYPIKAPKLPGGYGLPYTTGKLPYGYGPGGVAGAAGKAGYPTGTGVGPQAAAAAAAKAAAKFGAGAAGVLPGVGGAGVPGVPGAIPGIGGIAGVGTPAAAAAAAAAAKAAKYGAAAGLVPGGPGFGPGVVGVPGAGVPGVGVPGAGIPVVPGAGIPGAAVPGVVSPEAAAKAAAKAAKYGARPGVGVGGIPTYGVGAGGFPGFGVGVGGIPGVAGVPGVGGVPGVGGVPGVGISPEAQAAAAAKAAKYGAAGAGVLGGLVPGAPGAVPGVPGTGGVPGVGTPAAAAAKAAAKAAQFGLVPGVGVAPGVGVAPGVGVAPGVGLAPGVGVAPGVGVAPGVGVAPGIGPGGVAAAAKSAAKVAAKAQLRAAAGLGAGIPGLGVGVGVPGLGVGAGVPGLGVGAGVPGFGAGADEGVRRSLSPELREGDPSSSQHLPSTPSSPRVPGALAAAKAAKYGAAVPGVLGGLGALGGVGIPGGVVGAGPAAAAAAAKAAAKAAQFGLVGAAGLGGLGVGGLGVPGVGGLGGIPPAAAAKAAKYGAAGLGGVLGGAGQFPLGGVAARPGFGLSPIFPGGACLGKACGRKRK
Chain of human insoluble skin elastin (P15502 27-786): as above

| Substance | radioactivity increase over background [1] [fold for aortic elastin] | radioactivity increase over background [2] [fold for skin elastin] | cleavage fragments, fibrillin-1 Western blot of supernatant and ECM (fibrillin-1) | cleavage fragments, fibronectin Western blot of supernatants (fibronectin) |
| --- | --- | --- | --- | --- |
| elastase | 7.7 | 14.9 |  |  |
| Granzyme A |  |  | showed fibrillin-1 cleavage fragments in the GrA supernatant, GrA ECM | supernatants treated with granzyme A for the indicated times were probed for fibronectin and several fragments were observed |
| Trypsin |  |  | showed fibrillin-1 cleavage fragments in the GrA supernatant, GrA ECM, Trypsin supernatant, and Trypsin ECM; also recorded: showed fibrillin-1 cleavage fragments in the GrB supernatant, GrB ECM, Trypsin supernatant and Trypsin ECM |  |
